We go through two molecules from US20060292140A1 (published 2006).

The target of experiment [1] is T1, human α4β7 integrin (human, UniProt P13612 34-1032; P26010 20-798). In words: cell-based or functional assay.
In experiment [2] the target is T1, human α4β7 integrin. The experiment is described as follows: flow cytometry competition on HuT 78 cells; competitor biotinylated LDP-02/3A9/Lot#1 held constant. The protocol: (§1) Unless otherwise indicated, all reagents were diluted in 0.15 M PBS/1.0% FCS/0.1% sodium azide. The varying concentrations for both antibodies ranged in half-log increments from 2.0×10⁻⁶M to 5.0×10⁻¹¹M. After removal of the primary antibodies, the cells were then suspended in 100 μl streptavidin phycoerythrin (Dako Corp., Carpinteria, Calif.) diluted 1:200. After washing in 200 μl PBS, cells were resuspended in 0.5 ml of PBS/1% formalin and refrigerated until analyzed. Samples were analyzed on a FACScan (Becton Dickinson Corp., San Jose, Calif.) using a 488 nm laser to excite phycoerythrin. For each sample, a minimum of 10,000 cells was analyzed and MCF calculated. All samples were performed in duplicate. The IC₅₀ was determined as the concentration of unconjugated antibody producing a 50% reduction in the MCF from the biotinylated homologue antibody.
A general note: Flow cytometry measures light scatter and fluorescence of single cells or particles in a stream.

Experiment [3] has as its target T1, human α4β7 integrin. In words: flow cytometry titration of biotinylated antibody on HuT 78 cells, half-maximal mean channel fluorescence. Here is the method:
Unless otherwise indicated, all reagents were diluted in 0.15 M PBS/1.0% FCS/0.1% sodium azide. […] After washing in 200 μl PBS, cells were resuspended in 0.5 ml of PBS/1% formalin and refrigerated until analyzed. Samples were analyzed on a FACScan (Becton Dickinson Corp., San Jose, Calif.) using a 488 nm laser to excite phycoerythrin. […] All samples were performed in duplicate.

Experiment [4] concerns the target T1, human α4β7 integrin. In words: flow cytometry competition on HuT 78 cells; competitor biotinylated murine Act-1 held constant; experiment 1, lot 2. Here is the method:
as §1

In experiment [5] the target is T1, human α4β7 integrin. The experiment is described as follows: flow cytometry competition on HuT 78 cells; competitor biotinylated murine Act-1 held constant; experiment 2, lot 2. Here is the method: as §1
The target in experiment [6] is T1, human α4β7 integrin. In words: flow cytometry competition on HuT 78 cells; competitor biotinylated murine Act-1 held constant; experiment 3, lot 2. The protocol:
as §1

The target in experiment [7] is T1, human α4β7 integrin. The experiment is described as follows: flow cytometry competition on HuT 78 cells; competitor biotinylated murine Act-1 held constant; experiment 4, lot 2. Here is the method: as §1
The target in experiment [8] is T1, human α4β7 integrin. In words: flow cytometry competition on HuT 78 cells; competitor biotinylated murine Act-1 held constant; experiment 5, lot 2. Here is the method: as §1
Experiment [9] concerns the target T1, human α4β7 integrin. The experiment is described as follows: flow cytometry competition on HuT 78 cells; competitor biotinylated murine Act-1 held constant; mean of 5 experiments. Here is the method:
as §1

For experiment [10], the target named is T1, human α4β7 integrin. The experiment is described as follows: flow cytometry on HuT 78 cells, transient COS-7 expression.

B1: murine Act-1 monoclonal antibody (antibody, mouse IgG1, V domains shown)
VH: QVQLQQPGAELVKPGTSVKLSCKGYGYTFTSYWMHWVKQRPGQGLEWIGEIDPSESNTNYNQKFKGKATLTVDISSSTAYMQLSSLTSEDSAVYYCARGGYDGWDYAIDYWGQGTSVTVSS
VL: DVVVTQTPLSLPVSFGDQVSISCRSSQSLAKSYGNTYLSWYLHKPGQSPQLLIYGISNRFSGVPDRFSGSGSGTDFTLKISTIKPEDLGMYYCLQGTHQPYTFGGGTKLEIK
notes: Mouse IgG1/kappa from the Act-1 hybridoma; also called mouse Act-1; ACT-1 (murine)
As usually defined, the IC50 is the concentration that inhibits the measured activity by half. The low end stands for inhibition by little substance, the high end for a need for much substance. What is called EC50 is the midpoint of the concentration-response curve. Turning to B1, the “IC50: concentration which inhibited by 50% the adhesion of RPMI 8866 cells to human MAdCAM-1-Ig chimera” value with human α4β7 integrin [1] came to 0.0018 µg/mL. Further, the IC50 came to 6.3 nM with human α4β7 integrin [2]; 7.57 nM in the experiment with human α4β7 integrin [4]; 10.9 nM with human α4β7 integrin [5]; 6.02 nM with human α4β7 integrin [6]; 4.91 nM with human α4β7 integrin [7]; 10.2 nM with human α4β7 integrin [8]. For the same molecule, in the experiment with human α4β7 integrin [9], the IC50 came to 7.94 nM. Also, it took 0.1 µg/mL to reach a half-maximal effect with human α4β7 integrin [3] (EC50).

B2: derivative of LDP-02 (Fc-mutated) having a mutation in the light chain (MV4) plus a double mutation in the heavy chain (R38K, A40R) (antibody, human IgG1, V domains shown)
VH: QVQLVQSGAEVKKPGASVKVSCKGSGYTFTSYWMHWVKQRPGQRLEWIGEIDPSESNTNYNQKFKGRVTLTVDISASTAYMELSSLRSEDTAVYYCARGGYDGWDYAIDYWGQGTLVTVSS
VL: DVVVTQSPLSLPVTPGEPASISCRSSQSLAKSYGNTYLSWYLQKPGQSPQLLIYGISNRFSGVPDRFSGSGSGTDFTLKISRVEAEDVGVYYCLQGTHQPYTFGQGTKVEIK
notes: transient COS-7 expression; also called M4V / R38K, A40R derivative
In the case of B2, in the experiment with human α4β7 integrin [10], the binding result was “binds”.
